Test results: patent US20140364360A1

Columns and labels:
CCR5 (human) [1] = target: CCR5 (human) (UniProt P51681); test: flow cytometry competition on CD8+ T cells of human PBMC; 5P12-RANTES at 0.8 ng/ml or less; competitor antibody 2D7
CCR5 (human) [2] = target: CCR5 (human) (UniProt P51681); test: flow cytometry competition on CD8+ T cells of human PBMC; 5P12-RANTES at 100 ng/ml or greater; competitor antibody 2D7

Sequence of UniProt P51681 (P51681 whole entry): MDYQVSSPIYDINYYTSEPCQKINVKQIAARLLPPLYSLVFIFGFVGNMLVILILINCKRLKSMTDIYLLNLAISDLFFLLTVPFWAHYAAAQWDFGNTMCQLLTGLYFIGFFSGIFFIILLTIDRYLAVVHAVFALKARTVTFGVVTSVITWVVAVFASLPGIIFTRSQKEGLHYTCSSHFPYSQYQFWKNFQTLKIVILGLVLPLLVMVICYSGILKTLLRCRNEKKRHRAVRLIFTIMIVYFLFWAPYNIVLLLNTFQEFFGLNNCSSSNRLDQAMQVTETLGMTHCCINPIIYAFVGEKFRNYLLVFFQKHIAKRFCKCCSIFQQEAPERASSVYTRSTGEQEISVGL

2D7% binding (CCR5 (human) [1]): 20% | 2D7% binding (CCR5 (human) [2]): < 1%
Substance: 5P12-RANTES (ligand)
